Data published in article doi:10.1101/815886 (bioRxiv, 2019).

B1: human TEN1 (subunit of the purified recombinant CST complex) (natural protein)
chain: MMLPKPGTYYLPWEVSAGQVPDGSTLRTFGRLCLYDMIQSRVTLMAQHGSDQHQVLVCTKLVEPFHAQVGSLYIVLGELQHQQDRGSVVKARVLTCVEGMNLPLLEQAIREQRLYKQERGGSQ
B2: human STN1 (subunit of the purified recombinant CST complex) (natural protein)
chain: MQPGSSRCEEETPSLLWGLDPVFLAFAKLYIRDILDMKESRQVPGVFLYNGHPIKQVDVLGTVIGVRERDAFYSYGVDDSTGVINCICWKKLNTESVSAAPSAARELSLTSQLKKLQETIEQKTKIEIGDTIRVRGSIRTYREEREIHATTYYKVDDPVWNIQIARMLELPTIYRKVYDQPFHSSALEKEEALSNPGALDLPSLTSLLSEKAKEFLMENRVQSFYQQELEMVESLLSLANQPVIHSASSDQVNFKKDTTSKAIHSIFKNAIQLLQEKGLVFQKDDGFDNLYYVTREDKDLHRKIHRIIQQDCQKPNHMEKGCHFLHILACARLSIRPGLSEAVLQQVLELLEDQSDIVSTMEHYYTAF
B3: human CTC1 (subunit of the purified recombinant CST complex) (natural protein)
chain: MAAGRAQVPSSEQAWLEDAQVFIQKTLCPAVKEPNVQLTPLVIDCVKTVWLSQGRNQGSTLPLSYSFVSVQDLKTHQRLPCCSHLSWSSSAYQAWAQEAGPNGNPLPREQLLLLGTLTDLSADLEQECRNGSLYVRDNTGVLSCELIDLDLSWLGHLFLFPRWSYLPPARWNSSGEGHLELWDAPVPVFPLTISPGPVTPIPVLYPESASCLLRLRNKLRGVQRNLAGSLVRLSALVKSKQKAYFILSLGRSHPAVTHVSIIVQVPAQLVWHRALRPGTAYVLTELRVSKIRGQRQHVWMTSQSSRLLLLKPECVQELELELEGPLLEADPKPLPMPSNSEDKKDPESLVRYSRLLSYSGAVTGVLNEPAGLYELDGQLGLCLAYQQFRGLRRVMRPGVCLQLQDVHLLQSVGGGTRRPVLAPCLRGAVLLQSFSRQKPGAHSSRQAYGASLYEQLVWERQLGLPLYLWATKALEELACKLCPHVLRHHQFLQHSSPGSPSLGLQLLAPTLDLLAPPGSPVRNAHNEILEEPHHCPLQKYTRLQTPSSFPTLATLKEEGQRKAWASFDPKALLPLPEASYLPSCQLNRRLAWSWLCLLPSAFCPAQVLLGVLVASSHKGCLQLRDQSGSLPCLLLAKHSQPLSDPRLIGCLVRAERFQLIVERDVRSSFPSWKELSMPGFIQKQQARVYVQFFLADALILPVPRPCLHSATPSTPQTDPTGPEGPHLGQSRLFLLCHKEALMKRNFCVPPGASPEVPKPALSFYVLGSWLGGTQRKEGTGWGLPEPQGNDDNDQKVHLIFFGSSVRWFEFLHPGQVYRLIAPGPATPMLFEKDGSSCISRRPLELAGCASCLTVQDNWTLELESSQDIQDVLDANKSLPESSLTDLLSDNFTDSLVSFSAEILSRTLCEPLVASLWMKLGNTGAMRRCVKLTVALETAECEFPPHLDVYIEDPHLPPSLGLLPGARVHFSQLEKRVSRSHNVYCCFRSSTYVQVLSFPPETTISIPLPHIYLAELLQGGQSPFQATASCHIVSVFSLQLFWVCAYCTSICRQGKCTRLGSTCPTQTAISQAIIRLLVEDGTAEAVVTCRNHHVAAALGLCPREWASLLDFVQVPGRVVLQFAGPGAQLESSARVDEPMTMFLWTLCTSPSVLRPIVLSFELERKPSKIVPLEPPRLQRFQCGELPFLTHVNPRLRLSCLSIRESEYSSSLGILASSC

Assays:
Test in all cases: cryo-EM structure
[1] = target: B3
[2] = target: B2
[3] = target: the molecule itself

Binder: B1
- binding result [1]: binds
- stoichiometry N [2]: 1

Binder: B2
- stoichiometry N [1]: 1

Binder: B3
- binding result [3]: binds
